As a reminder, the Km is the concentration of substrate that gives half-maximal velocity. As a reminder, the Vmax is the top rate of the reaction or transport when substrate is in excess. The term kcat denotes the maximal rate divided by the concentration of active sites. In general, kcat/Km refers to the turnover number divided by the Michaelis constant.

Substrate in this data set: Nc1nc2c(ncn2[C@@H]2O[C@H](COP(=O)(O)OP(=O)(O)O[C@H]3O[C@H](CO)[C@@H](O)[C@H](O)[C@@H]3O)[C@@H](O)[C@H]2O)c(=O)[nH]1
Nature of the data set: purified protein. Format: biochemical, Arabidopsis thaliana. The settings on record: 50 mM Tris-HCl pH 8.0, 5 mM MgCl2, 37 °C, 10 min, GDP-D-Man 50 μM to 2 mM, apparent Km.

B1: AtNUDX9 (Arabidopsis thaliana) (protein)
chain: MAKLAEEMNPEGSRYQLLLSCPSGLSPSQVSVDFSKSHDRIPRQDPGLEDSISQVWEQRSQGNSSLFNGQKFRYGGYCLDDDDGSTNEVPHVCLRLGLTDYRTFVGTNLSSLWEKFLVTSEDDSVRCRHTSSPLGNGAVIETSDKKIIVLRRSNNVGEFPGHYVFPGGHPEPTAVGIDYHQLENNVQTGEVLNKKVTQEMFDSIICEVVEETGIPASSLSSPLFIGISRRELNVRPAMFFYLKCSHHSDDIQRLYSSAEDGFESTQLHTVSLDELKMMTSRMPGCHHGGFALYELMLQRLKNTKETSLIAT
notes: recombinant with hexahistidine tag (pCold II), expressed in E. coli BL21(DE3) pLysS, His Trap HP purified
B1: the Km was found to be 376 ± 24 µM, the maximal velocity (Vmax) stood at 1.61 µmol/min/mg, the kcat came out at 0.93 ± 1.5 s⁻¹ and the catalytic efficiency (kcat/Km) was found to be 2400 M⁻¹ s⁻¹.

For the origin of these results see article PMC4566977, “Identification and characterization of Arabidopsis AtNUDX9 as a GDP-d-mannose pyrophosphohydrolase: its involvement in root growth inhibition in response to ammonium” (Journal of Experimental Botany, 2015).
